From a protein production outcome set (Wang et al. 2014)

Test: label from the status in PepcDB records
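Note: failed if final PepcDB status was selected cloned or expressed and not failed if soluble or beyond.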

Sequence	protein production
MRDLVSCFSENSINVTHPLSISSSSSSCSKYSTNNVCISPSLIPSIQTSITSIYRITLSKHLIIKVTWCNPHNNNGLSISVASADQNPSTTLKLNTSSRFFRKKKGNKSVDSDLGKIEVFWDLSSAKYDSNLCGPEPINGFYVIVLVDGQMGLLLGDSSEETLRKKGFSGDIGFDFSLVSRQEHFTGNNTFYSTKVRFVETGDSHEIVIRCNKETEGLKQSNHYPVLSVCIDKKTVIKVKRLQWNFRGNQTIFLDGLLVDLMWDVHDWFFSNQGACGRAVFMFRTRNGLDSSRLWLEEKIVKKDQQDKLDFSLFIYACKT	failed
MEQPMKPTVIITGASSGVGLYGAKALIDKGWHVIMACRNLDKTQKVADELGFPKDSYTIIKLDLGYLDSVRRFVAQFRELGRPLKALVCNAAVYFPLLDEPLWSADDYELSVATNHLGHFLLCNLLLEDLKACPDADKRLIILGTVTANSKELGGKIPIPAPPDLGNFEGFEAGFKKPIAMINNKKFKSGKAYKDSKLCNMLTTRELHRRFHQETGIVFNSLYPGCVADTPLFRNHYSLFRTIFPWFQKNVTKGYVSQELAGERVAMVVADDKFKDSGVHWSWGNRQQAGREAFVQELSEQGSDAQKAQRMWDLSEKLVGLV	failed
MFTQRKKWLSGVAAGLLMAASVSASAEEKILHIYNWSDYIAPDTLANFQKETGIKVVYDVFDSNEVLEGKLMAGSTGFDLVVPSASFLERQLSAGVFKPLDKSKLPNEKNLDPELLALVSKHDPDNKYAIPYLWATTGIGYNVEKVKAVLGEDAPVNSWDLVLKPENLEKLKSCGVSFLDAPSEIFATVLNYLGKDPNSTLTADYTGSATDLLLKLRPNIRYFHSSQYINDLANGDICVAVGWAGDIMQASNRAKEAKNGVNVAYSIPKEGALAFFDVFAMPTDAKNQDEAYQFLNYLMRPDVIANISNHVFYANANQAATPLVNAEVRDNPGIYPPADVRAKMFTLKVQDPKIDRVITRAWTKVKSGK	failed
MEGMDPLAVLAESRLLPLLTVRGGEDLLGLARVLEEEGVGALEITLRTEKGLEALKALRKSGLLLGAGTVRSPKEAEAALEAGAAFLVSPGLLEEVAALAQARGVPYLPGVLTPTEVERALALGLSALKFFPAEPFQGVRVLRAYAEVFPEVRFLPTGGIKEEHLPHYAALPNLLAVGGSWLLQGNLEAVRAKVRAAKALLSPQAPG	not failed
MTFLDKIKQGCLDGWAKYKILPSLTAAQTILESGWGKHAPHNALFGIKADSSWTGKSFDTKTQEEYQAGVVTDIVDRFRAYDSWTDSIIDHGKFLNDNPRYQAVIGETDYKKACHAIKDAGYATASGYAELLIQLIEENDLQEWDEEAIVRKEKQMISSQCREVIEFFINLVNAGVGVDKDGFAGWQCTDVPCYAAKHWFGVDLWGNAIDLLDSAAAVGWEVHRMPTDANPQTGAFFVQSVPYHQFGHTGVVIEDSDGYTMRTIEQNIDGNPDALYVGAPARFNTRDFTGVTGWFYPPYQGDIVTQPVSTEPQTSDTIVETAKTGTFTLDVAEINIRRWPSLTSEVVGSYKQGDTISFDSEGYANGYYWISYVGGSGMRNYTAIGITDKDGNIISLWGKLNLEHHHHHH	not failed
MAVLLSSFSPLGINIDMNKNLGVSYSSFPQIHLFKGSTPLRVRTFVVSSRKNSGTGLASEDKKLLLERYGYDANDDFGSQSKKARRKEEKMSGRNSQQVEEVVVVQPRTTHRLLQVLAGTAKRKKLLSLKGMDVRPMMEVVKGAAFGILQAAGGCPTSLRPGRWLDLYSGTGSVGIEAISRGCSEAHFVEMDPWVVSNVLQPNLEHTGFVDASVIHTARVENFLERADKLVGKDGVFDYISVTPPYMEVDYEVLMDQIAKSPAIGENTFILVEYPSRTTMLDSCGCLEKMTDRRFGRTHLAIYGPKWAQKPRKS	failed
MGRKQLNHIKCRENCSLVAKAGFRHRRVIIQGIQSAMVQDSDEILFVEEEDPVAGSLPSDVSPWKVLVADDDPEVFTVTRLVLSGFVFAGRGVSLLYAGSAAEATEILRQQSDIAVALLDVVMETEDAGLKLVKVIRDDLGNSHLRIVLRTGQPGQAPEHDVVMRYDINDYRSKTELTDTKLITTLVSSLRSYQQIEALERSRAELREARDTLEIRVAERTRDLRESEARLRSILDASVFPILVLSEEGDRVRFLNDHAGEALGWALLENTTSTLPDLWENPVDGARLLARTVQRGRVLDCEFRLRGAGGEPFWALVSTIAMSYDGQPAVLLSFNDITVHKQREEAWQRLALTDPLTGLGNRRLLFDRGILEVARARRGCWPLSGLMIDLDHFKRINDTQGHAAGDAILRTLADTLRESLREIDVIARVGGEEFAILLPDTSLTAAHEVGERLRLSCQIPQPVGGPVTISVGISTLHPEDRGLGDMLSRADDALYRAKRNGRDRVEIADDSEDNQDVSP	failed
MNATHDLQSTPSRLRRFACMMYEGVLLFGVVFIASYLFDTLTQSKHGLMLRDGRQVWLFLVIGLYFVLCWRRRGQTLPMKTWNIRLVDRDGQPPSTPRLVLRYVLAWPLPLGAAALVWLASSLTGWRSVDMFIVLAPFAIFAWSWVDPDGQFLHDRLLGTRLRNAPPRAARAVAGT	failed
MSRAYTGALSYPQKIVIILLNKISSQHLKGDIFGGLTAAVIALPLALAFGVSSGAGAIAGVYGAIFVGFFAALFGGTATQISGPTGPMSVVMALVFTQLIGSHPDTGLVLAFTCVILAGLFQILFGLLKLGKYFVMVPYPVISGFMTGIGIIIILLQISPLLGSAGDSNALAALMNIPNALSQQNTLATVLGVITLLLMIYWPEKWTKIIPAPLFALITLTVISATFFSQQGISVIGEIPTGFPSLSMPSLSLESLSQVSYFAFLLAVLGAIDSLLTSMVADTLTETHHDSDKELIGQGIANTIAGFFGALPGAGATMRTAINIRAGGKTALSGIIHSITLLIVILWAGDYAQYIPHTVLAGMLIKVGLDIIDWRFIFQIKKVGLFSATLMLLVLLLTVFVDLITAVLVGMFIANLVTLDRLTHIQLDNITFKRGDELLSEISSNETNIALTDDIQNNLSKSLANTLLLEIDGPVSFAVSRELSRRFTENLAFTTLVIDLSNAKLIGTTTAIMITDLIDRTKSKEKTVLVITGNEKINQSLDKLSLATLLDKKYQFTNREQALQTLI	failed
ATHTLQLAIGDEPTEGFDPMLGWSHGSYLLLHSPLLKQNEDFSWDSLLLSQYQPSDDGKTWLLTLKPDLKFSDGSPLTAKDVAFTYNNAAASGGKVDMGNFLSAEVIDPLNVRIHLKAPQSTFVNVLGSLGIVSADKYNAKTYAQKPIGAGPYRLVSFQPGQQMIVEANPYYAGNKNDFDKLIFVFLDEDSAFAAAQSGQLGVVRIPPSMAVGSVNNMKLWVRPSVENRGIVFPTTPAGKKDAHGYPIGNDVTADVAIRRAINYAINRQLLADQIMEGHAIPAYTGVQGLPWNNPDSAIKDGDIDKAKQILEQAGWQLNSQGTREKNGLPAKITLWYTSGDTTRRDLAQALRSMLKPIGIDVDLKSGSWETVERNMHANPTLFGWGSLDPMELYHHYSSNAAGVEYYNPGYYKNPMVDKHLQQALDAPTWQQAVPFWQQVDWDGTTGAGIRGDAAWAWLLNIQHTYLANNCVDLGKGTPEIHGSWSLLNSIDSWK	not failed
MFGCPKDLLNGPCGGALDGKCEVNSNLCPWYSLMEKFELLDGAPLLVEHPVVLEMERIFEGEEVEIKRSSFIKNLGRGKAISVEFPIRLFEKGVREFRKVGDLYTIPDNPLGYPHISPTALGTWLKSKGHSVMPHLTAKDRNVIAISSEFRTALEFDFEGILITTGDWSGFILQGKPVFDLDSANMIRLAKLMFSGVLPTGERVEVKERPFIAGTVNPNYPAKLEGKRLARKIIAGADLVISQVVANRKVVREIPKILQEALKYSPHEVPVVVSILYPLKRELEPILRKMGIKTGDDIRAIVEEISSLEFGGINVIVFEETRWEEKLNEVLDLLKELL	failed
EPPKLVNDKPHKFKDHFFKKPKFCDVCARMIVLNNKFGLRCKNCKTNIHEHCQSYVEMQRC	not failed
MTRPERAPLSASARIEVPFHDVDAMAVCWHGHYLKYFEIGRAALLRAFDYDYPEMRASGYLWPVVEAHLKYIRPATYGQRIEVRATLIEYENRLKIGYEIADCASGQRLTKGHTIQVAVCAATSELQFVSPAVVFEKVERAWADLEHHHHHH	failed
MKLTKGKVLLAGCMAMAMSHSVLAQDIKVAIVGAMSGPVAQYGDMQFTGARQAIADINASGGIKGDKLVGVEYDDACDPKQAVAVANKVINDGIRYVIGHLCSSSTQPASDIYEDEGVIMITPAATNADLTTRGYKMIMRTTGLDSDQGPTAAKYIVETIKPKRIAVVHDKQQYGEGLARSVRDSLKEQGAEVVLFEGVTAGDKDFSTLVARLKKENVDFVYFGGYYPEMGQILRQAKQAGLTARFMGPEGVGNSSLSNIAGEASEGMLVTLPKRYDQVPANQPIVDALKAKKLDPTGPFVWTTYAALQSLTTAMERTGSKEPADLANDLKTGKPVETVMGPLSWDDKGDLKGFEFGIFEWHADGSSTAVK	failed
MGAATRVAPMTAAASSTKAWLMAARPQTLPAGAAPVIVGTGLAVYHGVFAPLPALFALFGALLLQIGTNFANDYYDAVRGADTEDRDGFTRVTAGGLIEPAAVKRAMYATFGLSMVIGLYLVAVGGVPILVVGLASIVAGITYSGGPLPYGYRGLGDLFVFVFFGLVAVAGTYYVQAAAHGGWFPLWIPEGTLPAAAVVAGLPAAGFSTAILVVNNIRDRETDAEAGKHTLAVILGYRLSRIEWSLMAGLGYAIPVVFWLDGYPATVLLPLVTAPLAIAIGRTVWNRTDGEALNPALQRTGKLLFAHSVCFALGFAAPAVI	failed
TPLLAILFIAQVSGSGRRVGVVGWPDLNYAGVLGYGGCYERIFAVPQQERTSLRVVTALAHGCDLVITRAGPTPRTYTPLQTQRFRNSLRSDAGCVIMMGDHVVSPAARLASAVVGYHGIGKGTGRIKAVEITVTGIAKGFYRTSRVIVGKHIAPAAEKTTMK	failed
MAQRERKAGVVKRDKADKWNHVETARYFRDLQENEVRTMHYLGLAYVVLSRRPNLQLKVPLSTQNYEDGAIVGAGERGGYALQLLFTCAANYPLARPLVEIVEKRNVSDAFEQVLRKEIDLILEEHLGLQMIVPVVTRLQITLNTEMKRQRF	failed
MSLTRPLRADAARNRARVLEVAYDTFAAEGLGVPMDEIARRAGVGAGTVYRHFPTKQALVVAVAEDRVRRIVDHARTLLAAEGPGEALFVFMRDMVRSAAADYGLVDALVGYGLDLEVAAPGAEAAFLATLGELLAAAQRAGTVRADVDVAVIKALLVVCKVPQVYDGEVSERVVRVIEDGLRVRSSVEGHHHHHH	not failed
MEELFCIGCGARIQTENKDAAGYTPRAALEKGLETGELYCQRCFRLRHYNEITDVHITDDEFLKLLHEVGDSDALVVNVIDIFDFNGSIIPGLSRFVAGNDVLLVGNKKDILPKSVKDGKVTQWLTERAHEEGLRPVDVILTSAQNHHAIKDLIDTIEKYRHGQDVYVVGVTNVGKSTLINAIIREITGSRDVITTSRFPGTTLDKIEIPLDDGSYIFDTPGIIHRHQMAHYLTAKNLKYVSPKKEIKPKTYQLNSEQTLFLAGLARFDFISGQKQGFTAYFDNNLNLHRTKLVGADEFYTKHVGKLLTPPTGKEVSDFPKLVRHEFTIKDKMDIVYSGLGWIRVKSEAENPVVVAAWAPEGVAVVLRKALI	failed
MPTVAPTTVKPTTIPKETTTIAFTTDSSIEKPFGLDVSQASVGYVNIVWGRGTIDCYNVYVDGERRRTGISAQSLKLPVYTEGTHTIAITTVVGTRESEKLEVQVAITGTGEKETEPETCPEELKPQLKKNVPLRDDRIAIELNNKTNGKYSDSEIYWCILGNNENNQLCYMDKDGNMIPASESLNTVEVNGTKYANIYHTLAESDHVYAPTIRSGRMYLSYGKPVYVKFNGSTGYAGPDLNNPGDVNANTLFEFAEFTIEGKNYWGNTTRVDYFCFPMVTRLIGGSLYGGYDNVVGDIGTRDEIFTAFKNEVPNEYKSLVRDDRIIAPCKSTFNVGQDNGNYFDNYINEFWNKYANEDLRFSSESGSFVGRVVGNQMRFTREGDSTVYYVDKPNTQEVLEGKGAFDRGNGVEKAIEAQLCAAFNRGVATEPDKWYTPSQYYKNSVANFYAGFFHEHSVLGKAYGFCYDDVNDQSTLLQYNKADALVIDLKW	failed
